Measured values taken from US9126993B2, “Glucosylceramide synthase inhibitors” (GENZYME CORPORATION, priority 2011, dated 2015).
Entries after “also recorded” stand apart in the source; their conditions may differ.

Assays:
[1] = tested on: Fabry mice; assay: Substrate reduction therapy in Fabry mouse model: Gb3 and lyso-Gb3 levels; assay type: in vivo; settings: Fabry mice, in diet for 4 months starting at 8 months old; GZ 452 60 mg/kg/day, GZ 638 300 mg/kg/day
Protocol: In the following experiments, mice dosed with GCS inhibitors at either ˜60 mg/kg/day of (S)-Quinuclidin-3-yl(2-(2-(4-fluorophenyl)thiazol-4-yl)propan-2-yl)carbamate (S)-2-hydroxysuccinate salt (hereinafter “GZ 452”) or ˜300 mg/kg/day of (1R,2R)-Octanoic acid[2-(2′,3′-dihydro-benzo[1,4] dioxin-6′-yl)-2-hydroxy-1-pyrrolidin-1-ylmethyl-ethyl]-amide-L-tartaric acid salt (hereinafter “GZ 638”) as a component of the pelleted food diet provided ad libitum. Lipid analysis was by ESI/MS as described in Marshall et al., PLoS ONE 5:e15033 (2010). As discussed in further detail below, treatment started when the mice were 3, 8 or 12 months of age to test the efficacy at different disease severities. Blood and urine was collected monthly and periodic tissue harvests provided materials to evaluate efficacy of the therapy (Gb3 and lyso-Gb3 levels). […] As further discussed below, the efficacy of SMT was affected by the age of the mice at the start of treatment. Generally, the older the mouse, the higher the levels of Gb3 stored and thus a longer period of treatment was required in order to affect similar therapeutic benefit (see FIG. 4). The experiments and results are described further below.
In this experiment, Fabry mice were treated with GCS inhibitors in their diet for 4 months starting at 8 months old. […] Age-matched wild-type levels (WT) are also shown. […]

[2] = tested on: Fabry mice; assay: Combination therapy (ERT + SRT) in Fabry mouse model: plasma and urine Gb3 and lyso-Gb3; assay type: in vivo; settings: Fabry mice treated 2 months from 3 months of age; ERT 1 mg/kg iv every 2 months; SRT GZ 452 ~60 mg/kg/day in diet
Excerpt: Fabry mice were used to test the in vivo efficacy of combining enzyme replacement therapy with small molecule therapy in a concurrent treatment format. The study was designed to evaluate whether substrate inhibition (i.e. “substrate reduction therapy”) using the GZ 452 compound could reduce re-accumulation of the storage material Gb3 and lyso-Gb3. The study protocol called for three distinct treatment groups of 3 month old male Fabry mice (FIG. 6A). The first group received intravenous injections of alpha-galactosidase A enzyme (ERT) at 1 mg/kg to reduce Gb3 levels and was repeated every 2 months. The second group received the same enzyme injections as group 1, but also were dosed with GZ 452 at ˜60 mg/kg/day as a component of the pelleted diet. The third group received only the daily dosing of GZ 452 in their diet. A fourth group received no treatment to serve as vehicle controls and a fifth group of wild-type animals provided ‘normal’ Gb3 and lyso-Gb3 values. Monthly urine and blood collections and three monthly tissue harvests provide materials to evaluate relative efficacy of the therapies (FIG. 6A).
After 2 months (mice were 5 months old), plasma (FIG. 6B, panels A and C) and urine (FIG. 6B, panels B & D) were analyzed for Gb3 (FIG. 6B, panels A and B) and lyso-Gb3 (FIG. 6B, panels C and D). […] SMT therapy alone or in combination with ERT was also capable of affecting (reducing accumulation) of lyso-Gb3.

[3] = tested on: Fabry mice; assay: Thermal nociceptive response (55° C. hotplate) in Fabry mice; assay type: in vivo, mouse; settings: 10 month old Fabry mice after 7 months of treatment
Protocol: Three month old Fabry mice were treated with GZ 452 in their diet (SRT), αgal once every 2 months (ERT), or a combination of the 2 treatments (E+S), as described above. […]

[4] = tested on: K14 mice; settings: neonatal (P1-P3) intracerebroventricular injections, previous experiments (Cabrera-Salazar et al. 2010); cited from earlier work

Q: Which “Gb3 in visceral tissue (kidney, heart) relative to the starting levels” value [1] does the source give for “(1R,2R)-Octanoic acid[2-(2′,3′-dihydro-benzo[1,4] dioxin-6′-yl)-2-hydroxy-1-pyrrolidin-1-ylmethyl-ethyl]-amide-L-tartaric acid salt [GZ 638, reference compound]” here?
A: effective at inhibiting further accumulation of tissue Gb3

B1: ERT: alpha-galactosidase A enzyme (ERT), intravenous injections at 1 mg/kg every 2 months (protein, UniProt P06280 32-429, looked up)
Alpha-galactosidase A: LDNGLARTPTMGWLHWERFMCNLDCQEEPDSCISEKLFMEMAELMVSEGWKDAGYEYLCIDDCWMAPQRDSEGRLQADPQRFPHGIRQLANYVHSKGLKLGIYADVGNKTCAGFPGSFGYYDIDAQTFADWGVDLLKFDGCYCDSLENLADGYKHMSLALNRTGRSIVYSCEWPLYMWPFQKPNYTEIRQYCNHWRNFADIDDSWKSIKSILDWTSFNQERIVDVAGPGGWNDPDMLVIGNFGLSWNQQVTQMALWAIMAAPLFMSNDLRHISPQAKALLQDKDVIAINQDPLGKQGYQLRQGDNFEVWERPLSGLAWAVAMINRQEIGGPRSYTIAVASLGKGVACNPACFITQLLPVKRKLGFYEWTSRLRSHINPTGTVLLQLENTMQMSLKDLL
Q: With B1 as the molecule, how does the “plasma Gb3 level” value [2] read?
A: to a greater extent than SMT; also recorded: reduced

Q: What about the “plasma lyso-Gb3 level” value [2] of the same molecule?
A: reduced

Q: And the “urine Gb3 level” value [2]?
A: unaffected

Q: What about the “thermal nociceptive response time (latency) vs untreated” value [3] of the same molecule?
A: not significantly different to the untreated group

B2: GC: Recombinant human glucocerebrosidase (rhGC), reformulated for ICV administration (protein, UniProt P04062 40-536, looked up)
Lysosomal acid …: ARPCIPKSFGYSSVVCVCNATYCDSFDPPTFPALGTFSRYESTRSGRRMELSMGPIQANHTGTGLLLTLQPEQKFQKVKGFGGAMTDAAALNILALSPPAQNLLLKSYFSEEGIGYNIIRVPMASCDFSIRTYTYADTPDDFQLHNFSLPEEDTKLKIPLIHRALQLAQRPVSLLASPWTSPTWLKTNGAVNGKGSLKGQPGDIYHQTWARYFVKFLDAYAEHKLQFWAVTAENEPSAGLLSGYPFQCLGFTPEHQRDFIARDLGPTLANSTHHNVRLLMLDDQRLLLPHWAKVVLTDPEAAKYVHGIAVHWYLDFLAPAKATLGETHRLFPNTMLFASEACVGSKFWEQSVRLGSWDRGMQYSHSIITNLLYHVVGWTDWNLALNPEGGPNWVRNFVDSPIIVDITKDTFYKQPMFYHLGHFSKFIPEGSQRVGLVASQKNDLDAVALMHPDGSAVVVVLNRSSKDVPLTIKDPAVGFLETISPGYSIHTYLWRRQ
Q: With B2 as the molecule, how does the median survival [4] read?
A: 23 days
